# Results reported in patent US20260166128A1, “HUMAN AMYLIN ANALOG, AND DERIVATIVE THEREOF AND USE THEREOF” (priority 2022, published 2026).
# Numbered stars: 1 amine (or outer) side, 2 acyl side, 3 side chain; on linkers, the order of the positions; unused ones are H or OH. Bridge positions count the residues as written; N and C are the ends. Square brackets hold non-standard residues; d marks the D form. Side chains are listed from the residue outwards. Peptide text beside a SMILES is read from it. * marks the point of attachment. C20 diacid = O=C(O)CCCCCCCCCCCCCCCCCCC(=O)*; C18 diacid = O=C(O)CCCCCCCCCCCCCCCCC(=O)*; C16 diacid = O=C(O)CCCCCCCCCCCCCCC(=O)*; γGlu = O=C(O)[C@H](CCC(=O)[*:2])N[*:1]; C14 diacid = O=C(O)CCCCCCCCCCCCC(=O)*; C12 diacid = O=C(O)CCCCCCCCCCC(=O)*; HOOC(CH2)8CO = O=C(O)CCCCCCCCC(=O)*; Hyp = O=C(O)[C@@H]1C[C@@H](O)CN1
# Key:
# human amylin receptor = target: T1, human amylin receptor (Homo sapiens, UniProt O60896+P30988); experiment: Luciferase assay of amylin derivatives in amylin receptor/CRE-luc CHO cell line; type: cell-based; settings: CHO-K1/Ga15/AMY3 CRE-luc cells, 24 hours incubation, F12 medium containing 10% FBS; read-out: EC50
# T1 construct: host or cells: CHO-K1/Ga15/AMY3 cells, further stably transfected with a CRE-luciferase plasmid
# T1 sequence (P30988 25-474): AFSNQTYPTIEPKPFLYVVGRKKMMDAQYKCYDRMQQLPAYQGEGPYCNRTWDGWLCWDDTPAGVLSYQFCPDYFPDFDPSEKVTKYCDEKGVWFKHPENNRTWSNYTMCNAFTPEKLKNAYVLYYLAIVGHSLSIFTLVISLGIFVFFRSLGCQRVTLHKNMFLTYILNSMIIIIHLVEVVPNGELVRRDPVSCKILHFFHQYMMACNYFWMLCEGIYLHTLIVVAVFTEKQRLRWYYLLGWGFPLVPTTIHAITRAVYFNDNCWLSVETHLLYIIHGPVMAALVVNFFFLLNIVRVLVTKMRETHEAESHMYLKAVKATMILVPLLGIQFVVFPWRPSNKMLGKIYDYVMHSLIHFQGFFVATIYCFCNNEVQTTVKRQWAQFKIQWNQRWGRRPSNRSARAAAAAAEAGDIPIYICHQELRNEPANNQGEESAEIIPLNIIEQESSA
# T1 sequence (O60896 24-148 partner): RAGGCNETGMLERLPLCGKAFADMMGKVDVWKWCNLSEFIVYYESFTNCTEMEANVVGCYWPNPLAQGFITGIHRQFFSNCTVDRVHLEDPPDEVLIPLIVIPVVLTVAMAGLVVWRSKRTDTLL
# Description: The experiment was intended to detect the activity or efficacy of the amylin derivatives on a human amylin receptor in vitro by luciferase assay.
# 50 μL of growth medium (F12 medium containing 10% FBS) was added into each well of a white 96-well plate, and the stably transfected amylin/CRE-lue CHO cells were inoculated into the white 96-well plate at a density of about 20,000 cells/well for activity determination.
# [1] = Freeze-thaw stability of derivatives (freeze-thaw yield by liquid chromatography); type: physicochemical; settings: for Dissolution property: appearance after dissolution at 0.2 mg/ml in 20 mM phosphate buffer solution (PB) (pH 7.0); for Freeze storage property: appearance after overnight storage at −20° C. and thawing to room temperature, 0.2 mg/ml in 20 mM PB (pH 7.0); for Freeze storage yield: concentration of polypeptide after freezing and thawing / concentration before, by liquid chromatography, −20° C. overnight
# Description: The freeze-dried powder of the polypeptide analog derivative prepared in Example 1 was mixed with a buffer solution according to a mass-volume ratio of 0.2 mg/ml, the polypeptide was dissolved with 20 mM phosphate buffer solution (PB) (pH 7.0), the sample was stored at −20° C. for overnight storage, and then the sample was taken out to be restored to room temperature for thawing. During the experiment, property changes of the polypeptide after dissolution and freezing and thawing were observed and recorded respectively, and concentrations of the polypeptide before and after the freezing and thawing were detected by the following liquid chromatography method: Materials and equipment: high-performance liquid chromatographic instrument (Agilent 1200), ultrapure water (18.2 MΩ self-manufactured ultrapure water), acetonitrile (HPLC grade), and trifluoroacetic acid (HPLC grade); and reversed-phase chromatographic column: […] A sample to be tested was centrifuged at 10,000 rpm and 4° C. for 3 minutes, and a supernatant was taken and added into a liquid-phase sample injection bottle. […] A freeze-thaw yield was calculated by the following formula: freeze-thaw yield=concentration of polypeptide after the freezing and thawing/concentration of polypeptide before the freezing and thawing.
Compound,EC50 (human amylin receptor),Dissolution property [1],Freeze storage property [1],Freeze storage yield [1]
CC[C@H](C)[C@H](NC(=O)[C@@H]1CCCN1C(=O)[C@H](CCCCNC(=O)CC[C@H](NC(=O)CCCCCCCCCCCCCCCCCCC(=O)O)C(=O)O)NC(=O)[C@H](CC(C)C)NC(=O)[C@H](CC(N)=O)NC(=O)[C@H](CC(N)=O)NC(=O)[C@H](CO)NC(=O)[C@H](CO)NC(=O)[C@H](Cc1c[nH]cn1)NC(=O)[C@H](CCCNC(=N)N)NC(=O)[C@H](CC(C)C)NC(=O)[C@H](Cc1ccccc1)NC(=O)[C@H](CCC(=O)O)NC(=O)[C@H](C)NC(=O)[C@H](CC(C)C)NC(=O)[C@H](CCCNC(=N)N)NC(=O)[C@H](CCC(N)=O)NC(=O)[C@@H](NC(=O)[C@H](C)NC(=O)[C@@H]1CSSC[C@H](NC(=O)[C@@H](N)CCCNC(=N)N)C(=O)N[C@@H](CC(N)=O)C(=O)N[C@@H]([C@@H](C)O)C(=O)N[C@@H](C)C(=O)N[C@@H]([C@@H](C)O)C(=O)N1)[C@@H](C)O)C(=O)N[C@@H](CC(C)C)C(=O)N1CCC[C@H]1C(=O)N1CCC[C@H]1C(=O)N[C@H](C(=O)N[C@@H](CC(N)=O)C(=O)N[C@H](C(=O)NCC(=O)N[C@@H](CO)C(=O)NCC(=O)N[C@H](C(=O)N1C[C@H](O)C[C@H]1C(N)=O)[C@@H](C)O)C(C)C)[C@@H](C)O [PD041] (H-RCNTATCATQRLAEFLRHSSNNLK([γGlu-C20 diacid])PILPPTNVGSGT[Hyp]-NH2; disulfide 2-7),259 pM,,,
CC[C@H](C)[C@H](NC(=O)[C@@H]1CCCN1C(=O)[C@H](CCCCNC(=O)CC[C@H](NC(=O)CCCCCCCCCCCCCCCCCCC(=O)O)C(=O)O)NC(=O)[C@H](CC(C)C)NC(=O)[C@H](CC(N)=O)NC(=O)[C@H](CC(N)=O)NC(=O)[C@H](CO)NC(=O)[C@H](CO)NC(=O)[C@H](Cc1c[nH]cn1)NC(=O)[C@H](CCCNC(=N)N)NC(=O)[C@H](CC(C)C)NC(=O)[C@H](Cc1ccccc1)NC(=O)[C@H](CCC(=O)O)NC(=O)[C@H](C)NC(=O)[C@H](CC(C)C)NC(=O)[C@H](CCCNC(=N)N)NC(=O)[C@H](CCC(N)=O)NC(=O)[C@@H](NC(=O)[C@H](C)NC(=O)[C@@H]1CSSC[C@H](N)C(=O)N[C@@H](CC(N)=O)C(=O)N[C@@H]([C@@H](C)O)C(=O)N[C@@H](C)C(=O)N[C@@H]([C@@H](C)O)C(=O)N1)[C@@H](C)O)C(=O)N[C@@H](CC(C)C)C(=O)N1CCC[C@H]1C(=O)N1CCC[C@H]1C(=O)N[C@H](C(=O)N[C@@H](CC(N)=O)C(=O)N[C@H](C(=O)NCC(=O)N[C@@H](CO)C(=O)N[C@@H](CC(N)=O)C(=O)N[C@H](C(=O)N1C[C@H](O)C[C@H]1C(N)=O)[C@@H](C)O)C(C)C)[C@@H](C)O [PD053] (H-CNTATCATQRLAEFLRHSSNNLK([γGlu-C20 diacid])PILPPTNVGSNT[Hyp]-NH2; disulfide 1-6),75 pM,,,
CC[C@H](C)[C@H](NC(=O)[C@@H]1CCCN1C(=O)[C@H](CCCCNC(=O)CC[C@H](NC(=O)CCCCCCCCCCCCCCCCCCC(=O)O)C(=O)O)NC(=O)[C@H](CC(C)C)NC(=O)[C@H](CC(N)=O)NC(=O)[C@H](CC(N)=O)NC(=O)[C@H](CO)NC(=O)[C@H](CO)NC(=O)[C@H](Cc1c[nH]cn1)NC(=O)[C@H](CCCNC(=N)N)NC(=O)[C@H](CC(C)C)NC(=O)[C@H](Cc1ccccc1)NC(=O)[C@H](CC(=O)O)NC(=O)[C@H](C)NC(=O)[C@H](CC(C)C)NC(=O)[C@H](CCCNC(=N)N)NC(=O)[C@H](CCC(N)=O)NC(=O)[C@@H](NC(=O)[C@H](C)NC(=O)[C@@H]1CSSC[C@H](N)C(=O)N[C@@H](CC(N)=O)C(=O)N[C@@H]([C@@H](C)O)C(=O)N[C@@H](C)C(=O)N[C@@H]([C@@H](C)O)C(=O)N1)[C@@H](C)O)C(=O)N[C@@H](CC(C)C)C(=O)N1CCC[C@H]1C(=O)N1CCC[C@H]1C(=O)N[C@H](C(=O)N[C@@H](CC(N)=O)C(=O)N[C@H](C(=O)NCC(=O)N[C@@H](CO)C(=O)N[C@@H](CC(N)=O)C(=O)N[C@H](C(=O)N1C[C@H](O)C[C@H]1C(N)=O)[C@@H](C)O)C(C)C)[C@@H](C)O [PD054] (H-CNTATCATQRLADFLRHSSNNLK([γGlu-C20 diacid])PILPPTNVGSNT[Hyp]-NH2; disulfide 1-6),49 pM,,,
"PD137: KCNTATCATQRLADFLRHSSNNLGPILPPTNVGSNT-trans-Hyp-NH2; N-terminal, 1K-ϵ; γGlu + C14 diacid ({C14 diacid-γGlu}-K([γGlu-C14 diacid])CNTATCATQRLADFLRHSSNNLGPILPPTNVGSNT-{trans‑Hyp-NH2}; disulfide 2-7 (inferred))",,Clear,Clear,102.20%
"PD138: KCNTATCATQRLADFLRHSSNNLGPILPPTNVGSNT-trans-Hyp-NH2; N-terminal, 1K-ϵ; γGlu + C16 diacid ({C16 diacid-γGlu}-K([γGlu-C16 diacid])CNTATCATQRLADFLRHSSNNLGPILPPTNVGSNT-{trans‑Hyp-NH2}; disulfide 2-7 (inferred))",,Clear,Clear,106.03%
"PD139: KCNTATCATQRLADFLRHSSNNLGPILPPTNVGSNT-trans-Hyp-NH2; N-terminal, 1K-ϵ; γGlu + C18 diacid ({C18 diacid-γGlu}-K([γGlu-C18 diacid])CNTATCATQRLADFLRHSSNNLGPILPPTNVGSNT-{trans‑Hyp-NH2}; disulfide 2-7 (inferred))",,Clear,Clear,104.78%
"PD148: KCNTATCATQRLADFLRHSSNNLKPILPPTNVGSNT-trans-Hyp-NH2; N-terminal, 1K-ϵ; γGlu + C10 diacid ({HOOC(CH2)8CO-γGlu}-K([γGlu-HOOC(CH2)8CO])CNTATCATQRLADFLRHSSNNLKPILPPTNVGSNT-{trans‑Hyp-NH2}; disulfide 2-7 (inferred))",,Clear,Clear,103.34%
"PD149: KCNTATCATQRLADFLRHSSNNLKPILPPTNVGSNT-trans-Hyp-NH2; N-terminal, 1K-ϵ; γGlu + C12 diacid ({C12 diacid-γGlu}-K([γGlu-C12 diacid])CNTATCATQRLADFLRHSSNNLKPILPPTNVGSNT-{trans‑Hyp-NH2}; disulfide 2-7 (inferred))",,Clear,Clear,99.99%
"PD150: KCNTATCATQRLADFLRHSSNNLKPILPPTNVGSNT-trans-Hyp-NH2; N-terminal, 1K-ϵ; γGlu + C14 diacid ({C14 diacid-γGlu}-K([γGlu-C14 diacid])CNTATCATQRLADFLRHSSNNLKPILPPTNVGSNT-{trans‑Hyp-NH2}; disulfide 2-7 (inferred))",,Clear,Clear,103.74%
"PD151: KCNTATCATQRLADFLRHSSNNLKPILPPTNVGSNT-trans-Hyp-NH2; N-terminal, 1K-ϵ; γGlu + C16 diacid ({C16 diacid-γGlu}-K([γGlu-C16 diacid])CNTATCATQRLADFLRHSSNNLKPILPPTNVGSNT-{trans‑Hyp-NH2}; disulfide 2-7 (inferred))",,Clear,Clear,101.88%
"PD152: KCNTATCATQRLADFLRHSSNNLKPILPPTNVGSNT-trans-Hyp-NH2; N-terminal, 1K-ϵ; γGlu + C18 diacid ({C18 diacid-γGlu}-K([γGlu-C18 diacid])CNTATCATQRLADFLRHSSNNLKPILPPTNVGSNT-{trans‑Hyp-NH2}; disulfide 2-7 (inferred))",,Clear,Clear,97.96%
